Measurements: the supplement of paper PMC5998384

Tests used:
HeLa Kyoto [1] = assay: solubility in G1/S (NP-40 vs SDS abundance) (log2 ratio); higher = more soluble; conditions: cell cycle stage: G1/S
HeLa Kyoto [2] = assay: melting temperature (median over replicates), in situ; higher = more thermally stable
HeLa Kyoto [3] = assay: solubility change mitosis vs G1/S (difference of NP-40 vs SDS log2 ratios) (log2 ratio difference); higher = more soluble in mitosis
HeLa Kyoto [4] = assay: thermal stability score vs G1/S (z-score of summed log2 fold changes over temperatures); higher = more thermally stable than in G1/S
[5] = cell cycle stage: early G1 (4.5 h after nocodazole release)
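Wherever melting temperature (median over replicates), in situ is given: HeLa Kyoto cells synchronized by double thymidine or nocodazole block, proteins quantified by TMT10plex mass spectrometry, three independent biological replicates.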
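Wherever solubility change mitosis vs G1/S (difference of NP-40 vs SDS log2 ratios) is given: synchronized HeLa Kyoto cells (double thymidine block for G1/S, nocodazole release for mitosis), protein amounts in NP-40 versus SDS lysates quantified by mass spectrometry, three biological replicates.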
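Wherever solubility in G1/S (NP-40 vs SDS abundance) is given: HeLa Kyoto cells arrested at G1/S by double thymidine block, proteins quantified by TMT10plex mass spectrometry in mild NP-40 versus SDS extracts, three biological replicates.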
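Wherever thermal stability score vs G1/S (z-score of summed log2 fold changes over temperatures) is given: synchronized HeLa Kyoto cells, proteins quantified by TMT10plex mass spectrometry, three biological replicates, mitosis taken 0.5 h after nocodazole release, G1/S directly after double thymidine block.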

| Sequence | solubility in G1/S (log2) (HeLa Kyoto [1]) | melting temperature (HeLa Kyoto [2]; cell cycle stage: G1/S) [°C] | melting temperature (HeLa Kyoto [2]; cell cycle stage: mitosis) [°C] | solubility change mitosis (log2) (HeLa Kyoto [3]) | thermal stability score (HeLa Kyoto [4]; [5]) | thermal stability score (HeLa Kyoto [4]; cell cycle stage: mitosis) |
| --- | --- | --- | --- | --- | --- | --- |
| MATSRYEPVAEIGVGAYGTVYKARDPHSGHFVALKSVRVPNGGGGGGGLPISTVREVALLRRLEAFEHPNVVRLMDVCATSRTDREIKVTLVFEHVDQDLRTYLDKAPPPGLPAETIKDLMRQFLRGLDFLHANCIVHRDLKPENILVTSGGTVKLADFGLARIYSYQMALTPVVVTLWYRAPEVLLQSTYATPVDMWSVGCIFAEMFRRKPLFCGNSEADQLGKIFDLIGLPPEDDWPRDVSLPRGAFPPRGPRPVQSVVPEMEESGAQLLLEMLTFNPHKRISAFRALQHSYLHKDEGNPE [CDK4] | 0.218 | 52.7 | 52.4 | -0.121 | 0.0522 | -0.366 |
| MATSVLCCLRCCRDGGTGHIPLKEMPAVQLDTQHMGTDVVIVKNGRRICGTGGCLASAPLHQNKSYFEFKIQSTGIWGIGVATQKVNLNQIPLGRDMHSLVMRNDGALYHNNEEKNRLPANSLPQEGDVVGITYDHVELNVYLNGKNMHCPASGIRGTVYPVVYVDDSAILDCQFSEFYHTPPPGFEKILFEQQIF [SPRYD7] | 0.156 | 52.6 | 54.2 | -0.19 | 0.0977 | -1.67 |
| MATTAAPAGGARNGAGPEWGGFEENIQGGGSAVIDMENMDDTSGSSFEDMGELHQRLREEEVDADAADAAAAEEEDGEFLGMKGFKGQLSRQVADQMWQAGKRQASRAFSLYANIDILRPYFDVEPAQVRSRLLESMIPIKMVNFPQKIAGELYGPLMLVFTLVAILLHGMKTSDTIIREGTLMGTAIGTCFGYWLGVSSFIYFLAYLCNAQITMLQMLALLGYGLFGHCIVLFITYNIHLHALFYLFWLLVGGLSTLRMVAVLVSRTVGPTQRLLLCGTLAALHMLFLLYLHFAYHKVVEGILDTLEGPNIPPIQRVPRDIPAMLPAARLPTTVLNATAKAVAVTLQSH [YIPF3] | -0.107 | 55.9 | 55.7 | -0.0133 | -2.34 | -3.63 |
| MATYLEFIQQNEERDGVRFSWNVWPSSRLEATRMVVPLACLLTPLKERPDLPPVQYEPVLCSRPTCKAVLNPLCQVDYRAKLWACNFCFQRNQFPPAYGGISEVNQPAELMPQFSTIEYVIQRGAQSPLIFLYVVDTCLEEDDLQALKESLQMSLSLLPPDALVGLITFGRMVQVHELSCEGISKSYVFRGTKDLTAKQIQDMLGLTKPAMPMQQARPAQPQEHPFASSRFLQPVHKIDMNLTDLLGELQRDPWPVTQGKRPLRSTGVALSIAVGLLEGTFPNTGARIMLFTGGPPTQGPGMVVGDELKIPIRSWHDIEKDNARFMKKATKHYEMLANRTAANGHCIDIYACALDQTGLLEMKCCANLTGGYMVMGDSFNTSLFKQTFQRIFTKDFNGDFRMAFGATLDVKTSRELKIAGAIGPCVSLNVKGPCVSENELGVGGTSQWKICGLDPTSTLGIYFEVVNQHNTPIPQGGRGAIQFVTHYQHSSTQRRIRVTTIARNWADVQSQLRHIEAAFDQEAAAVLMARLGVFRAESEEGPDVLRWLDRQLIRLCQKFGQYNKEDPTSFRLSDSFSLYPQFMFHLRRSPFLQVFNNSPDESSYYRHHFARQDLTQSLIMIQPILYSYSFHGPPEPVLLDSSSILADRILLMDTFFQIVIYLGETIAQWRKAGYQDMPEYENFKHLLQAPLDDAQEILQARFPMPRYINTEHGGSQARFLLSKVNPSQTHNNLYAWGQETGAPILTDDVSLQVFMDHLKKLAVSSAC [SEC23B] | 0.0443 | 50.4 | 50.9 | -0.175 | 0.832 | 0.395 |
| MAVAPRLFGGLCFRFRDQNPEVAVEGRLPISHSCVGCRRERTAMATVAANPAAAAAAVAAAAAVTEDREPQHEELPGLDSQWRQIENGESGRERPLRAGESWFLVEKHWYKQWEAYVQGGDQDSSTFPGCINNATLFQDEINWRLKEGLVEGEDYVLLPAAAWHYLVSWYGLEHGQPPIERKVIELPNIQKVEVYPVELLLVRHNDLGKSHTVQFSHTDSIGLVLRTARERFLVEPQEDTRLWAKNSEGSLDRLYDTHITVLDAALETGQLIIMETRKKDGTWPSAQLHVMNNNMSEEDEDFKGQPGICGLTNLGNTCFMNSALQCLSNVPQLTEYFLNNCYLEELNFRNPLGMKGEIAEAYADLVKQAWSGHHRSIVPHVFKNKVGHFASQFLGYQQHDSQELLSFLLDGLHEDLNRVKKKEYVELCDAAGRPDQEVAQEAWQNHKRRNDSVIVDTFHGLFKSTLVCPDCGNVSVTFDPFCYLSVPLPISHKRVLEVFFIPMDPRRKPEQHRLVVPKKGKISDLCVALSKHTGISPERMMVADVFSHRFYKLYQLEEPLSSILDRDDIFVYEVSGRIEAIEGSREDIVVPVYLRERTPARDYNNSYYGLMLFGHPLLVSVPRDRFTWEGLYNVLMYRLSRYVTKPNSDDEDDGDEKEDDEEDKDDVPGPSTGGSLRDPEPEQAGPSSGVTNRCPFLLDNCLGTSQWPPRRRRKQLFTLQTVNSNGTSDRTTSPEEVHAQPYIAIDWEPEMKKRYYDEVEAEGYVKHDCVGYVMKKAPVRLQECIELFTTVETLEKENPWYCPSCKQHQLATKKLDLWMLPEILIIHLKRFSYTKFSREKLDTLVEFPIRDLDFSEFVIQPQNESNPELYKYDLIAVSNHYGGMRDGHYTTFACNKDSGQWHYFDDNSVSPVNENQIESKAAYVLFYQRQDVARRLLSPAGSSGAPASPACSSPPSSEFMDVN [USP11] | -0.0353 | 47.3 | 48.1 | -0.0102 | 2.48 | 4.39 |
| MAVARAALGPLVTGLYDVQAFKFGDFVLKSGLSSPIYIDLRGIVSRPRLLSQVADILFQTAQNAGISFDTVCGVPYTALPLATVICSTNQIPMLIRRKETKDYGTKRLVEGTINPGETCLIIEDVVTSGSSVLETVEVLQKEGLKVTDAIVLLDREQGGKDKLQAHGIRLHSVCTLSKMLEILEQQKKVDAETVGRVKRFIQENVFVAANHNGSPLSIKEAPKELSFGARAELPRIHPVASKLLRLMQKKETNLCLSADVSLARELLQLADALGPSICMLKTHVDILNDFTLDVMKELITLAKCHEFLIFEDRKFADIGNTVKKQYEGGIFKIASWADLVNAHVVPGSGVVKGLQEVGLPLHRGCLLIAEMSSTGSLATGDYTRAAVRMAEEHSEFVVGFISGSRVSMKPEFLHLTPGVQLEAGGDNLGQQYNSPQEVIGKRGSDIIIVGRGIISAADRLEAAEMYRKAAWEAYLSRLGV [UMPS] | 0.169 | 53.9 | 53 | -0.08 | -0.259 | -1.37 |
| MAVEDSTLQVVVRVRPPTPRELDSQRRPVVQVVDERVLVFNPEEPDGGFPGLKWGGTHDGPKKKGKDLTFVFDRVFGEAATQQDVFQHTTHSVLDSFLQGYNCSVFAYGATGAGKTHTMLGREGDPGIMYLTTVELYRRLEARQQEKHFEVLISYQEVYNEQIHDLLEPKGPLAIREDPDKGVVVQGLSFHQPASAEQLLEILTRGNRNRTQHPTDANATSSRSHAIFQIFVKQQDRVPGLTQAVQVAKMSLIDLAGSERASSTHAKGERLREGANINRSLLALINVLNALADAKGRKTHVPYRDSKLTRLLKDSLGGNCRTVMIAAISPSSLTYEDTYNTLKYADRAKEIRLSLKSNVTSLDCHISQYATICQQLQAEVAALRKKLQVYEGGGQPPPQDLPGSPKSGPPPEHQPCTPELPAGPRALQEESLGMEAQVERAMEGNSSDQEQSPEDEDEGPAEEVPTQMPEQNPTHALPESPRLTLQPKPVVGHFSARELDGDRSKQLALKVLCVAQRQYSLLQAANLLTPDMITEFETLQQLVQEEKIEPGAEALRTSGLARGAPLAQELCSESIPVPSPLCPEPPGYTGPVTRTMARRLSGPLHTLGIPPGPNCTPAQGSRWPMEKKRRRPSALEADSPMAPKRGTKRQRQSFLPCLRRGSLPDTQPSQGPSTPKGERASSPCHSPRVCPATVIKSRVPLGPSAMQNCSTPLALPTRDLNATFDLSEEPPSKPSFHECIGWDKIPQELSRLDQPFIPRAPVPLFTMKGPKPTSSLPGTSACKKKRVASSSVSHGRSRIARLPSSTLKRPAGPLVLPELPLSPLCPSNRRNGKDLIRVGRALSAGNGVTKVS [KIF18B] | -0.336 |  | 49.3 | 0.37 | 1.28 | 1.04 |
| MAVELGVLLVRPRPGTGLGRVMRTLLLVLWLATRGSALYFHIGETEKKCFIEEIPDETMVIGNYRTQLYDKQREEYQPATPGLGMFVEVKDPEDKVILARQYGSEGRFTFTSHTPGEHQICLHSNSTKFSLFAGGMLRVHLDIQVGEHANDYAEIAAKDKLSELQLRVRQLVEQVEQIQKEQNYQRWREERFRQTSESTNQRVLWWSILQTLILVAIGVWQMRHLKSFFEAKKLV [TMED9] | 0.375 | 55.7 | 56.7 | 0.0692 | 1.59 | 1.3 |
| MAVKKIAIFGATGQTGLTTLAQAVQAGYEVTVLVRDSSRLPSEGPRPAHVVVGDVLQAADVDKTVAGQDAVIVLLGTRNDLSPTTVMSEGARNIVAAMKAHGVDKVVACTSAFLLWDPTKVPPRLQAVTDDHIRMHKVLRESGLKYVAVMPPHIGDQPLTGAYTVTLDGRGPSRVISKHDLGHFMLRCLTTDEYDGHSTYPSHQYQ [BLVRB] | 0.417 | 50.4 | 50.7 | -0.116 | 4.14 | 2.47 |
| MAVKVQTTKRGDPHELRNIFLQYASTEVDGERYMTPEDFVQRYLGLYNDPNSNPKIVQLLAGVADQTKDGLISYQEFLAFESVLCAPDSMFIVAFQLFDKSGNGEVTFENVKEIFGQTIIHHHIPFNWDCEFIRLHFGHNRKKHLNYTEFTQFLQELQLEHARQAFALKDKSKSGMISGLDFSDIMVTIRSHMLTPFVEENLVSAAGGSISHQVSFSYFNAFNSLLNNMELVRKIYSTLAGTRKDVEVTKEEFAQSAIRYGQVTPLEIDILYQLADLYNASGRLTLADIERIAPLAEGALPYNLAELQRQQSPGLGRPIWLQIAESAYRFTLGSVAGAVGATAVYPIDLVKTRMQNQRGSGSVVGELMYKNSFDCFKKVLRYEGFFGLYRGLIPQLIGVAPEKAIKLTVNDFVRDKFTRRDGSVPLPAEVLAGGCAGGSQVIFTNPLEIVKIRLQVAGEITTGPRVSALNVLRDLGIFGLYKGAKACFLRDIPFSAIYFPVYAHCKLLLADENGHVGGLNLLAAGAMAGVPAASLVTPADVIKTRLQVAARAGQTTYSGVIDCFRKILREEGPSAFWKGTAARVFRSSPQFGVTLVTYELLQRWFYIDFGGLKPAGSEPTPKSRIADLPPANPDHIGGYRLATATFAGIENKFGLYLPKFKSPSVAVVQPKAAVAATQ [SLC25A12] | -0.00588 | 56 | 57.1 | -0.128 | -0.889 | -1.22 |
| MAVNVYSTSVTSDNLSRHDMLAWINESLQLNLTKIEQLCSGAAYCQFMDMLFPGSIALKKVKFQAKLEHEYIQNFKILQAGFKRMGVDKIIPVDKLVKGKFQDNFEFVQWFKKFFDANYDGKDYDPVAARQGQETAVAPSLVAPALNKPKKPLTSSSAAPQRPISTQRTAAAPKAGPGVVRKNPGVGNGDDEAAELMQQVNVLKLTVEDLEKERDFYFGKLRNIELICQENEGENDPVLQRIVDILYATDEGFVIPDEGGPQEEQEEY [MAPRE1] | 0.394 | 50.8 | 51.2 | 0.204 | -0.163 | -0.675 |
